Test [1] addresses T1, human PVRIG on FlpinCHO-PVRIG cells (human, UniProt Q6DKI7 41-326).
T1 construct: whole, on cells; also called FlpinCHO-hPVRIG; FlpinCHO-human PVRIG
T1 sequence (looked up): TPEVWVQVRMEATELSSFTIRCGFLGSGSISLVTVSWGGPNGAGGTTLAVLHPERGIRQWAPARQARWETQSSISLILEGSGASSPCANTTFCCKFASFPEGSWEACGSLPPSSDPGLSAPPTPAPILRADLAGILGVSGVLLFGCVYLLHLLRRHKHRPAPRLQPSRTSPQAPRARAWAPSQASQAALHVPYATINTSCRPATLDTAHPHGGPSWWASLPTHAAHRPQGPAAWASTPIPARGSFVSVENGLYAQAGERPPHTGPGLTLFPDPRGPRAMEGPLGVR
As to the kind of experiment: FACS, FlpinCHO-PVRIG cells. As to the method: After discarding the cell culture medium, the cells were rinsed with PBS and digested for 8-10 minutes by adding 1 mL Versene (Gibico, 15040-066). The Ham's F12 (Gibico, 21127-022) complete medium containing 10% FBS was then added to terminate the digestion and acquire cell suspension. After counting with a cell counter (Beckman Coulter, Vi-CELL), an appropriate amount of cell suspension was centrifuged at 350×g to remove the supernatant, washed twice with PBS, stained with Zombie violet (Biolegend, 423114) and incubated at room temperature for 20 minutes. After incubation, the cells were added with staining buffer (2% FBS+PBS) to stop staining, centrifuged at 350×g to remove the supernatant, washed twice and resuspended with staining buffer to a density of 2×10⁶ cells/mL. The cells were plated into a 96-well plate (50 μL of cell suspension per well) for further use. The antibodies were diluted from the highest concentration of 46 nM (two-fold concentration) with staining buffer by 3.3-fold serial dilution. The diluted antibodies were added to the well containing 50 μL of cell suspension. The plate was placed on a microplate shaker at 400 rpm for 1 minute to fully mix the antibodies and cells, and then incubated at 4° C. for 30 minutes. After the incubation, the cells were washed twice with staining buffer (200 μL per well) and centrifuged at 350×g for 5 minutes to discard the supernatant. The PE goat anti-human IgG Fc antibody (ebioscience, 12-4998-82) was diluted 250 times with staining buffer, added into the washed wells (100 μL per well), mixed well, and stained at 4° C. for 30 minutes. After staining, the cells were washed twice with staining buffer, finally resuspended with 200 μL staining buffer and analyzed by flow cytometry (BD, Canto II). The stronger the signal, the stronger the ability of the antibodies binds to PVRIG. An antibody binding curve was drawn with concentration of antibodies as the abscissa and the corresponding Mean Fluorescence Intensity (MFI) as the ordinate. The AUC value of the curve was calculated by using a Four Parameter Logistic Fit (GraphPadPrism9).

In test [2] the target is T2, human TIGIT ECD-mFc (fusion protein of extracellular domain of human TIGIT and mouse IgG2a Fc fragment) (human).
T2 chain: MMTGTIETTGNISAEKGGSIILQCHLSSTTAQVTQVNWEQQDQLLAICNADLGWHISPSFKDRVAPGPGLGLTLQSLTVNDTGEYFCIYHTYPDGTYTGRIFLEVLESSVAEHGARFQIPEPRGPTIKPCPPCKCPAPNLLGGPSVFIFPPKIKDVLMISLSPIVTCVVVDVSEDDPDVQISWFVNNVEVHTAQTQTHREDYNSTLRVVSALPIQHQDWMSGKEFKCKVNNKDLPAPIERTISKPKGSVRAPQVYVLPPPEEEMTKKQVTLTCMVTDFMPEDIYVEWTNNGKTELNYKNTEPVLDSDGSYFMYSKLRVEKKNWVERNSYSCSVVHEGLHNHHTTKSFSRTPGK
Nature of the test: FACS, competition: hTIGIT ECD-mFc to CHO-K1 CD155. The method, then: The collected CHO-K1 CD155 cells were washed once with PBS (Hyclone, CAT #SH30256) and resuspended to 2×10⁵/40 μL with 1% BSA-PBS. The tested antibodies were diluted to 600 nM with 1% BSA-PBS (diluted by 2.5-fold serial dilution for 12 concentration points). The TIGIT ECD-mFc was diluted with 1% BSA-PBS to 6 μg/mL. The 40 μL cells were then mixed with 40 μL diluted antibodies and 40 μL diluted TIGIT ECD-mFc, and then incubated at 4° C. for 60 minutes. […] The cell samples were washed twice with PBS, resuspended to 100 μL/well with 1% BSA-PBS and then analyzed by flow cytometry (BD, Canto II).
(In general: A flow cytometer gives signals particle by particle.)

Test [3] concerns the target T3, full-length human TIGIT on CHO-K1 cells (CHO-K1 human TIGIT) (human, UniProt Q495A1 22-244).
T3 construct: NCBI XP_024309156.1; entry includes the signal peptide; also called high expression strain 1D2; medium expression strain 2D10
T3 sequence: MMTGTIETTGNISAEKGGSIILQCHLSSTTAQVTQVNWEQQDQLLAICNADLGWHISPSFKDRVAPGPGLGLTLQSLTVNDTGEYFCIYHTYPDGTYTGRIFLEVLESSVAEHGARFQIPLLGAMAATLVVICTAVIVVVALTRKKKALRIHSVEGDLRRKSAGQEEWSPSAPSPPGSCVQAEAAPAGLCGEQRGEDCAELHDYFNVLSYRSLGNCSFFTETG
As to the kind of experiment: FACS, CHO-K1 human TIGIT medium expression strain. As to the method:
The collected cells were washed once with PBS (Hyclone, Cat NO. SH30256), resuspended to 2×10⁵/50 μL with 1% BSA-PBS. The antibodies were diluted to 80 nM with 1% BSA-PBS (diluted by 3-fold serial dilution for 12 concentration points). The 50 μL cells were then mixed with 50 μL diluted antibodies, and then incubated at 4° C. for 60 minutes. […] After washing twice with PBS, the cell samples were resuspended with 1% BSA-PBS, 100 μL/well and then analyzed by flow cytometry (BD, Canto II).

The source of these data is patent US20240343803A1 (SHANDONG SIMCERE BIOPHARMACEUTICAL, published 2024).

B1: PVRIG-A105 (VHH)
VHH: EVQLVESGGGLVQAGGSLRLSCAASGRTFDRHTMTWFRQAPGKEREFVATASRIPGDTYYSHSVKGRFTISRDNAKNTVYLQLNNLKPEDTAVYYCAATSAYCSEVDCYEKGSWYDNWGQGIQVTVSS
notes: tested as VHH-hinge-CH2-CH3 (human IgG1-Fc); not shown: human IgG1 hinge-CH2-CH3
For the molecule B1, in test [1], the half-maximal effective concentration (EC50 (read off the curve)) (usually the concentration giving half of the maximal effect) was ~0.4 nM.

B2: RG6058-hIgG1 (antibody, V domains shown)
VH: EVQLQQSGPGLVKPSQTLSLTCAISGDSVSSNSAAWNWIRQSPSRGLEWLGKTYYRFKWYSDYAVSVKGRITINPDTSKNQFSLQLNSVTPEDTAVFYCTRESTTYDLLAGPFDYWGQGTLVTVSS
VL: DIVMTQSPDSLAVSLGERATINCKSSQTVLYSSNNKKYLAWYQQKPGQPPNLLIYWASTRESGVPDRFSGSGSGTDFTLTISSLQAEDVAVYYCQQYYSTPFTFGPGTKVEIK
notes: human IgG1 format by its name; also called Roche RG6058; control antibody RG6058
As for B2, the IC50 (usually the midpoint of a concentration-inhibition curve) in test [2] was determined as 0.566 nM. In addition, the “EC50 (read off the curve)” value in test [3] is ~0.4 nM.
